B1: CPEB3 Ribozyme (parent)
chain: GGGGGCCACAGCAGAAGCGUUCACGUCGCGGCCCCUGUCAGAUUCUGGUGAAUCUGCGAAUUCUGCUGU

The values below come from the RNAGym collection of RNA variant scans (doi:10.7554/elife.80360).

The variants in this series derive from B1. Kind of series: self-cleavage, relative activity (ratio to wild type); higher = more cleavage; co-transcriptional.
For GGGGGCCACAGCAGAAGCGUACACGUCUCGGCCCCUGUCAGAUUCUGGUGAAUCUGCGAAUUCUGCUGU, the self-cleavage is 0.241.

With GGGGGCCACAGCAGAAGCGUACAUGUCGCGGCCCCUGUCAGAUUCUGGUGAAUCUGCGAAUUCUGCUGU, the self-cleavage came out at 0.69.

For GGGGGCCACAGCAGAAGCGUACACGUGGCGGCCCCUGUCAGAUUCUGGUGAAUCUGCGAAUUCUGCUGU, the self-cleavage was determined as 0.222.

For the variant GGGGGCCACAGCAGAAGCGUACACGUCGCGGCCCCUGUCAGAUUCUGGUGAAUCAGCGAAUUCUGCUGU, the self-cleavage came out at 0.916.

Take GGGGGCCACAGCAGAAGCGUACACGUCGCGGCCCCUGUCAGAUUCUGGUGAAUCUGCGAAUUCUUCUGU: the self-cleavage was 0.795.

With GGGGGCCACAGCAGAAGCGUACACGUCGCGGCCCCUGUCAGAUUCUGGUGAAUCUGCGAAUUCUACUGU, the self-cleavage was 0.862.

As for GGGGGCCACAGCAGAAGCGGUCACGUCGCGGCCCCUGGCAGAUUCUGGUGAAUCUGCGAAUUCUGCUGU, the self-cleavage was 0.123.

With GGGGGCCACAGCAGAAGCGUACACGUCGCGGCCCCUCUCAGAUUCUGGUGAAUCUGCGAAUUCUGCUGU, the self-cleavage amounted to 0.217.

For GGGGGCCACAGCAGAAGCGUACACGUCGCGGCCCCUAUCAGAUUCUGGUGAAUCUGCGAAUUCUGCUGU, the self-cleavage came to 0.283.

GGGGGCCACAGCAGAAGCGUACACGUCGAGGCCCCUGUCAGAUUCUGGUGAAUCUGCGAAUUCUGCUGU: the self-cleavage worked out at 0.686.

With GGGGGCCACAGCAGAAGCGGUCACGUCGCGGCCCCUGUCAGAUUCUGGUGAAUCUGCGAAUCCUGCUGU, the self-cleavage amounted to 0.244.

GGGGGCCACAGCAGAAGCGUACACGUCGCGGCCCCUGUCAGAUUCUGGUUAAUCUGCGAAUUCUGCUGU: the self-cleavage came out at 0.971.

As for GGGGGCCACAGCAGAAGCGGUCACGUCGCGGCCCCUGUCAGAUUCUGGUGAAUCUGCGAAUUCGGCUGU, the self-cleavage stood at 0.117.

In the case of GGGGGCCACAGCAGAAGCGGUCACGUCGCGGCCCCUGUCAGAUUCUGGUGAAUCUGCGAAUUCAGCUGU, the self-cleavage was 0.152.

Turning to GGGGGCCACAGCAGAAGCGUACACGUCGCGGCCCGUGUCAGAUUCUGGUGAAUCUGCGAAUUCUGCUGU, the self-cleavage was 0.198.

Take GGGGGCCACAGCAGAAGCGUACACGUCGCGGCCCCUGUCAGAUUCUGGUGAAUCUGCCAAUUCUGCUGU: the self-cleavage was 0.938.

Turning to GGGGGCCACAGCAGAAGCGUACACGUCGCGGCCCCUGUCAGAUUCUGGUGAAUCUGCUAAUUCUGCUGU, the self-cleavage came out at 0.996.

With GGGGGCCACAGCAGAAGCGGUCACGUCGCGGCCCCUGUCAGAGUCUGGUGAAUCUGCGAAUUCUGCUGU, the self-cleavage was determined as 0.153.

On to GGGGGCCACAGCAGAAGCGUACACGUCGCGGCCCCUGUCAGACUCUGGUGAAUCUGCGAAUUCUGCUGU, for which the self-cleavage was determined as 0.909.

As to GGGGGCCACAGCAGAAGCGGUCACGUCGCGGCCCCUGUCAGAUUCUGGUGAAUCUGCGAAAUCUGCUGU, the self-cleavage was found to be 0.207.

Take GGGGGCCACAGCAGAAGCGUACACGUCGCGGCCCCUGUCAGAUUCUGGUGAAUCUGCGUAUUCUGCUGU: the self-cleavage amounted to 0.891.

For GGGGGCCACAGCAGAAGCGUACACGUCGCGGCCCCUGUAAGAUUCUGGUGAAUCUGCGAAUUCUGCUGU, the self-cleavage is 0.911.

As for GGGGGCCACAGCAGAAGCGUACACGUCGCAGCCCCUGUCAGAUUCUGGUGAAUCUGCGAAUUCUGCUGU, the self-cleavage is 0.866.

Regarding GGGGGCCACAGCAGAAGCGUACACGUCGCGCCCCCUGUCAGAUUCUGGUGAAUCUGCGAAUUCUGCUGU, the self-cleavage amounted to 0.221.

With GGGGGCCACAGCAGAAGCGGUCACGUCGCGGCCCCUGUCAGAUUCUGGUGAAUCUGCGAAUUCUGCUGA, the self-cleavage amounted to 0.264.

Consider GGGGGCCACAGCAGAAGCGUAUACGUCGCGGCCCCUGUCAGAUUCUGGUGAAUCUGCGAAUUCUGCUGU, for which the self-cleavage came to 0.325.

Take GGGGGCCACAGCAGAAGCGGUCACGUCGCGGCCCCGGUCAGAUUCUGGUGAAUCUGCGAAUUCUGCUGU: the self-cleavage was 0.16.

On to GGGGGCCACAGCAGAAGCGUACACGUCGCGGCCCCUGUCAGUUUCUGGUGAAUCUGCGAAUUCUGCUGU, for which the self-cleavage worked out at 0.941.

Regarding GGGGGCCACAGCAGAAGCGGUCACGUCGCGGCCCCUGUCAGAUUCUGGUGAAUCUGCGAAUUCUGCCGU, the self-cleavage came to 0.237.

For the variant GGGGGCCACAGCAGAAGCGGUCACGUCGCGGCCCCUGUCAGAUUCUGGUGAAUCUGCGAAUUCUGCAGU, the self-cleavage was found to be 0.223.

As for GGGGGCCACAGCAGAAGCGGUCACGUCGCGGCCCCUGUCAGAUUCGGGUGAAUCUGCGAAUUCUGCUGU, the self-cleavage amounted to 0.189.

As to GGGGGCCACAGCAGAAGCGUACACGUCGCGGCCCCUGUCAGAUUCUGGUGAAUCUGCGAAUUCUGUUGU, the self-cleavage came to 0.985.

With GGGGGCCACAGCAGAAGCGUACACGUCGCGGCCGCUGUCAGAUUCUGGUGAAUCUGCGAAUUCUGCUGU, the self-cleavage came out at 0.606.

With GGGGGCCACAGCAGAAGCGGUCACGUCGCGGCCCCUGUCAGAUCCUGGUGAAUCUGCGAAUUCUGCUGU, the self-cleavage was found to be 0.199.

For the variant GGGGGCCACAGCAGAAGCGGUCACGUCGCGGCCCCUGUCAGAUACUGGUGAAUCUGCGAAUUCUGCUGU, the self-cleavage was 0.271.

On to GGGGGCCACAGCAGAAGCGUACACGUCGCGGCCCCUGUCAGAUUCUGGUGAAUCUGCGAAUUCUGCUAU, for which the self-cleavage came out at 1.02.

For GGGGGCCACAGCAGAAGCGUACACGUCGCGGUCCCUGUCAGAUUCUGGUGAAUCUGCGAAUUCUGCUGU, the self-cleavage is 0.993.

For GGGGGCCACAGCAGAAGCGUACACGUCGCGGACCCUGUCAGAUUCUGGUGAAUCUGCGAAUUCUGCUGU, the self-cleavage turned out to be 0.808.

As for GGGGGCCACAGCAGAAGCGUACACGUCGCGGCCCCUGUCAGAUUCUGCUGAAUCUGCGAAUUCUGCUGU, the self-cleavage is 1.01.
